Experimental data reported in the supplement of paper PMC9170038.

Test system: MS2 coat protein
Assay: apparent KD of MS2 coat protein; designed switch direction (-1 OFF switch, 1 ON switch): -1; higher = weaker reporter binding
In short: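 An oligonucleotide input, 200 uM small-molecule ligand, or no input was present during titration of SNAP-549-labelled MS2 coat protein, which was doubled from 0.7 or 1.5 nM to 3 µM. Designed RNA switches had been transcribed on Illumina chips by stalled E. coli RNA polymerase. Apparent KD per design is the median over clusters of curves fitted to normalised cluster fluorescence.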

[1] = input ligand: microRNA oligo, concentration not stated
[2] = Eterna round: R95, input ligand: microRNA oligo, concentration not stated
[3] = Eterna round: R95, input ligand: FMN 200 uM
[4] = Eterna round: R95, input ligand: none

## GAUCCUUUGACGGACGUCUCGAAACAUGAGGAUCACCCAUGUGAGGAUAUCUCCGAGAGGUCGGCAGAGAAGGCACAUGAACAA [MOD3 Eternabot solution 19 score 84.66] (Eterna round: R96, puzzle: Exclusion NG 3)
Input ligand: FMN 200 uM
  apparent KD of MS2 coat protein: 123 nM
[1]
  apparent KD of MS2 coat protein: 16.5 nM
Input ligand: none
  apparent KD of MS2 coat protein: 19.8 nM

## AGAUGCUCAAGUCGACAUGAGGAUCACCCAUGUACAGUUAAUGAGGAUAUCUGAGAUAAAUAAUAGGAGAAGGCGUGAACAUGA [Ex NG3 #9] (Eterna round: R96, puzzle: Exclusion NG 3)
Input ligand: FMN 200 uM
  apparent KD of MS2 coat protein: 25.9 nM
[1]
  apparent KD of MS2 coat protein: 20.3 nM
Input ligand: none
  apparent KD of MS2 coat protein: 34.9 nM

## GAUUAACAUGAGGAUCACCCAUGUGAGGAUAUGGACUUGCCCACUUACCCAUUAGAGUCUAGAAGGCGCAUCUC [1986#2\9] (Eterna round: R97, puzzle: Exclusion 1)
Input ligand: FMN 200 uM
  apparent KD of MS2 coat protein: 25.7 nM
Input ligand: none
  apparent KD of MS2 coat protein: 25.3 nM

## UAUUAGCAAGCAAGAUCCUACAUGAGGAUCACCCAUGUGCUCGUCUUAAACUCAGAAUUACUGAGAGCUCGUCUUAU [Winner reversed engineered 24] (Eterna round: R97, puzzle: Sensor, turn-off variant 1)
Input ligand: FMN 200 uM
  apparent KD of MS2 coat protein: 443 nM
Input ligand: none
  apparent KD of MS2 coat protein: 515 nM

## ACAUGAGGAUCACCCAUGUGACCACGAUGGCUGAUGUAGACCUAGGAUAUGUGUGAAUAUCUAUCACAGAAGGAGGUUGACUGG [Deportation 51 - Jieux - Exclusion NG 3] (Eterna round: R96, puzzle: Exclusion NG 3)
Input ligand: FMN 200 uM
  apparent KD of MS2 coat protein: 44.4 nM
[1]
  apparent KD of MS2 coat protein: 34.3 nM
Input ligand: none
  apparent KD of MS2 coat protein: 42.7 nM

## CGACUGUGAGGAUAUGGUGAGUAGUGCCUGAGCGCUGCUCACCAGAAGGCACAUGAGGAUCACCCAUGUAUAGC [Mat - Exclusion 4 - Mod of JL - D9] (puzzle: Exclusion 4)
[2]
  apparent KD of MS2 coat protein: 31.7 nM

## GGGAAGUGAGGAUAUAUGAGAGAGGCUGAACCGGACGAGAAGUAGAAGGCACAUGAGGAUCACCCAUGUAGGGA [JR_Exclu4_Sub025] (puzzle: Exclusion 4)
[2]
  apparent KD of MS2 coat protein: 128 nM

## CACUGGACAGGAUAUGUUCUUGAGCACUUGAGGAUCACCCAAGUCAUCAAGAACUCAGGCACAGAAGGGUUUAUGG [salish99_ex5_r4_013] (Eterna round: R97, puzzle: Exclusion 5)
Input ligand: FMN 200 uM
  apparent KD of MS2 coat protein: 38.9 nM
Input ligand: none
  apparent KD of MS2 coat protein: 16.9 nM

## AUUUUAAUAUAGGAUAUCGAAAUUAUUAUUUAACGAGAAGGAUAAACAUGAGGAUCACCCAUGUGGUAUCAUGG [JMFs Solution 1] (puzzle: Exclusion 6)
[3]
  apparent KD of MS2 coat protein: 138 nM
[2]
  apparent KD of MS2 coat protein: 134 nM
[4]
  apparent KD of MS2 coat protein: 196 nM

## CGGUGUAGAGGAUAUACGUGAAGAUAAGAAAAUAAUAAUUAACAUGAGGAUCACCCAUGUAGAAGGCUAUAGCG [JR_Ex2_Sub082] (Eterna round: R97, puzzle: Exclusion 2)
Input ligand: FMN 200 uM
  apparent KD of MS2 coat protein: 66.3 nM
Input ligand: none
  apparent KD of MS2 coat protein: 24.9 nM

## GGGUGACAGUUAGGAUAUCUUAGCACGCCGUAGAGAGAAGGAACAUGAGGAUCACCCAUGUUGUAGUGCCUCCGGCACUGCUAG [Zaquata] (Eterna round: R96, puzzle: Exclusion NG 1)
Input ligand: FMN 200 uM
  apparent KD of MS2 coat protein: 59.2 nM
[1]
  apparent KD of MS2 coat protein: 30.1 nM
Input ligand: none
  apparent KD of MS2 coat protein: 43.5 nM

## AAUAACAAGUAGAUCCUAAACAUGAGGAUCACCCAUGUGCUCGUCUUGUAAAGUACUAUCACGAAAGUGAUAGUACA [Sensor 3, v1 - 58] (puzzle: Sensor v3, turn-off variant 1)
[3]
  apparent KD of MS2 coat protein: 67 nM
[2]
  apparent KD of MS2 coat protein: 360 nM
[4]
  apparent KD of MS2 coat protein: 115 nM

## AGGAGGAGUUCAGGAUAUUCGACAUGAGGAUCACCCAUGUGGGUAAUAUAUAGUAAAGAGAUAGAGAAGAAGGGAAGGGAGGAG [Exclusion NG2] (Eterna round: R96, puzzle: Exclusion NG 2)
Input ligand: FMN 200 uM
  apparent KD of MS2 coat protein: 42.5 nM
[1]
  apparent KD of MS2 coat protein: 23.5 nM
Input ligand: none
  apparent KD of MS2 coat protein: 36 nM

## UUAAGCUUUGAGAUCCUUAACAUGAGGAUCACCCAUGUUCGUCUUAUGAUGGUCUGAUCCCUGAGGAUCGGACCGUU [Mat - Sensor v3 - turn-off var 1 - JL Mod - D3] (puzzle: Sensor v3, turn-off variant 1)
[3]
  apparent KD of MS2 coat protein: 261 nM
[2]
  apparent KD of MS2 coat protein: 22.5 nM
[4]
  apparent KD of MS2 coat protein: 303 nM

## AGCGUGGAGACAGGAUAUGAGAAUAGAUAGAACUCAGAAGGGUCACAUGAGGAUCACCCAUGUAAAGUCUUGAGGCUGAGUGGU [Prohibition 6 - Jieux - Exclusion NG 1] (Eterna round: R96, puzzle: Exclusion NG 1)
Input ligand: FMN 200 uM
  apparent KD of MS2 coat protein: 153 nM
[1]
  apparent KD of MS2 coat protein: 36.4 nM
Input ligand: none
  apparent KD of MS2 coat protein: 45.2 nM

## AGGUGUAGAGGAUAUUCAUUCUUCCACAUGAGGAUCACCCAUGUCCCGGUCACCAGGGACGGAGAAGGCUACACCA [Omei Ex5 D26] (Eterna round: R97, puzzle: Exclusion 5)
Input ligand: FMN 200 uM
  apparent KD of MS2 coat protein: 108 nM
Input ligand: none
  apparent KD of MS2 coat protein: 76.8 nM

## AUUUUGUCAGGAUAUGACUAGAUGCACGAAAGUGCAUCUACUUAGAAGGGACAUGAGGAUCACCCAUGUAUUCC [Bring Us a Shrubbery-11] (puzzle: Exclusion 4)
[2]
  apparent KD of MS2 coat protein: 13.9 nM

## CAAUAGGGAGGAUAUCCAAUAUAUGACAUGAGGAUCACCCAUGUUUCCACUCGUACCUCCGGAGAAGGCCCAUAAC [Ex5 #7] (Eterna round: R97, puzzle: Exclusion 5)
Input ligand: FMN 200 uM
  apparent KD of MS2 coat protein: 21.1 nM
Input ligand: none
  apparent KD of MS2 coat protein: 21.7 nM

## AGAUCCUGAGUCAGGAUAUAGAGACGGUAGUCGGGCUAGAAGGGACAUGAGGAUCACCCAUGUGGGUUCGGGCC [Zarareso] (puzzle: Brourd's mod of Exclusion 4)
[2]
  apparent KD of MS2 coat protein: 12.8 nM

## AACAGGUCAGGAUAUACAUGAGGAUCACCCAUGUAGACUUCUGGUCUACCUUGACCGUGUAGAAGGGACCUGAA [Exclusion 3 (MOD2 of #98 Marzena11)] (Eterna round: R97, puzzle: Exclusion 3)
Input ligand: FMN 200 uM
  apparent KD of MS2 coat protein: 43.9 nM
Input ligand: none
  apparent KD of MS2 coat protein: 28.8 nM

## ACAAGCUUAAUCAGUAAGAACAUGAGGAUCACCCAUGUAAAAGGGAAGACAAUUGGGUUAUUUAAAGCUCGUCUUAU [JR_STOV1_Sub015] (Eterna round: R97, puzzle: Sensor, turn-off variant 1)
Input ligand: FMN 200 uM
  apparent KD of MS2 coat protein: 62.7 nM
Input ligand: none
  apparent KD of MS2 coat protein: 111 nM

## ACAACAAGCUUUUUGUUCGUAGAACAUGAUGCUCUAGUCACAUGAGGAUCACCCAUGUCAACCAGAUAGAUAGUUGA [JR_SV3TOV2_Sub063] (puzzle: Sensor v3, turn-off variant 2)
[3]
  apparent KD of MS2 coat protein: 53.1 nM
[2]
  apparent KD of MS2 coat protein: 143 nM
[4]
  apparent KD of MS2 coat protein: 50.4 nM

## UUUUUAUAUGAAGGAUAUACUUAACAUGAGGAUCACCCAUGUGGUGUUGUGAGUGAGUGAGUUUAGUAGAAGGUCAAGUCUUUU [JMF's solution 36] (Eterna round: R96, puzzle: Exclusion NG 2)
Input ligand: FMN 200 uM
  apparent KD of MS2 coat protein: 555 nM
[1]
  apparent KD of MS2 coat protein: 383 nM
Input ligand: none
  apparent KD of MS2 coat protein: 361 nM

## AGUACUAACACGUUUGUGUUAGUACAAUAAGCUUGUGAAACAUGAGGAUCACCCAUGUCCUCAUAAGCUCGUCUUAU [salish99_TOv2_r3_069] (puzzle: Sensor v3, turn-off variant 2)
[3]
  apparent KD of MS2 coat protein: 17.4 nM
[2]
  apparent KD of MS2 coat protein: 567 nM
[4]
  apparent KD of MS2 coat protein: 16.3 nM

## AGAUCACAUGAGGAUCACCCAUGUCAGGAUAUGAUACUAUGUACUUCGGUACAUAGUAUCAGAAGGGACUUAAA [Ex1-3: 70] (puzzle: Exclusion 1)
[2]
  apparent KD of MS2 coat protein: 101 nM

## CUGAGGUAGCGGUCCUAUGACAUGAGGAUCACCCAUGUACCUUGCUUCGAGCUUUUAGCUCGUCUUAUGAUUCUCGG [Mat - Sensor v3 - turn-off var 1 - JL Mod - D36] (puzzle: Sensor v3, turn-off variant 1)
[3]
  apparent KD of MS2 coat protein: 423 nM
[2]
  apparent KD of MS2 coat protein: 502 nM
[4]
  apparent KD of MS2 coat protein: 522 nM

## AUAAUGUGAGGAUAUCAGUCGACUAGCGAUAGCUAGUCGACUGAGAAGGCACAUGAGGAUCACCCAUGUGUUUC [E4/15-A4] (Eterna round: R97, puzzle: Exclusion 4)
Input ligand: FMN 200 uM
  apparent KD of MS2 coat protein: 44.4 nM
Input ligand: none
  apparent KD of MS2 coat protein: 16.8 nM

## CUUAUGUGAGGAUAUCAGUAGUGAUACGAUAGUAUUACUGCUGAGAAGGCACAUGAGGAUCACCCAUGUUCCUC [Exclusion 4 - Mod Omei Ex4 344 mod 4 v.2] (puzzle: Exclusion 4)
[2]
  apparent KD of MS2 coat protein: 91.6 nM

## CCUAUGUGAGGAUAUCACUGGUCUUUUCAUUAGAUGAUCAGUGAGAAGGCACAUGAGGAUCACCCAUGUCAGUG [Ex4 - 3 - 53] (puzzle: Exclusion 4)
[2]
  apparent KD of MS2 coat protein: 71.8 nM

## AGUAGUAGUUUCCGUUCUUACAUGAGGAUCACCCAUGUUUCUUGACGUGCACGCGAUGCUCGUCAGACUACCAGAUG [salish99_TOv1_r3_056] (puzzle: Sensor v3, turn-off variant 1)
[3]
  apparent KD of MS2 coat protein: 39.3 nM
[2]
  apparent KD of MS2 coat protein: 51.3 nM
[4]
  apparent KD of MS2 coat protein: 56.9 nM

## GAGCACUGCCGAGGAUAUCCACAUGAGGAUCACCCAUGUAGUGAAAAGUCCCAGUAGAACCAAAUGGAGAAGGUGGCAAGAUAU [Eternabot solution 21] (Eterna round: R96, puzzle: Exclusion NG 2)
Input ligand: FMN 200 uM
  apparent KD of MS2 coat protein: 23.2 nM
[1]
  apparent KD of MS2 coat protein: 20 nM
Input ligand: none
  apparent KD of MS2 coat protein: 17.9 nM

## GCACGGAGUGUAGGAUAUCUGUGCGAUUAGCUCAGAGAAGGGCACAUGAGGAUCACCCAUGUGUAUAAACACAAUAAUCCGUGC [Eli exng1 - 069] (Eterna round: R96, puzzle: Exclusion NG 1)
Input ligand: FMN 200 uM
  apparent KD of MS2 coat protein: 12.8 nM
[1]
  apparent KD of MS2 coat protein: 7.91 nM
Input ligand: none
  apparent KD of MS2 coat protein: 14.1 nM

## AAGGGUGCUUUCAGAACGACAUGAGGAUCACCCAUGUAGACUGAGGAUAUCUACUCCUAAGGACGGGAGAAGGUAGUGUAAUGC [Ex NG3 #66] (Eterna round: R96, puzzle: Exclusion NG 3)
Input ligand: FMN 200 uM
  apparent KD of MS2 coat protein: 22.8 nM
[1]
  apparent KD of MS2 coat protein: 17.7 nM
Input ligand: none
  apparent KD of MS2 coat protein: 26.1 nM
